Reference: patent publication US20210238281A1 (INSTITUT NATIONAL DE LA SANTE ET DE LA RECHERCHE MEDICALE …, published 2021)

B1: anti-MOG MO3I-30 antibody (scFv, V domains shown)
VH: EVQLLESGGGLVQPGGSLRLSCVASGFTFRSYWMHWVRQDPGEGLVWVSRVSGDGSSTNYADSVKGRFVISRDNAKDTLYLQMYSLRGEDTAVYYCLRGNDGYGNFDYWGQGTTVTVSS
VL: DVVMTQSPLSLPVTLGQPASISCRPSQSLVYSDGNTYLNWFQQRPGQSPRRLIYKVSNRDYVVPDRFSGSGSGTDFTLKISRVEAEDVGVYYCMQGTHWPLTFGGGTKVEIK
B2: anti-MOG MO3I-56 antibody (scFv, V domains shown)
VH: QVQLVESGGGVVQPGSSLRLSCTASGFKFDDYAMHWVRQAPGKGLEWVSGISWNSGSIGYADSVKGRFTISRDNAKNSLYLQMNSLRAEDTASYYCAKSLPHYYDSPPYGMDVWGQGTLVTVSS
VL: DIQLTQSPSSLSASVGDRVTITCRASQGISSALAWYQQKPGKAPKLLIYDASSLESGVPSRFSGSGSGTDFTLTISSLQPEDFATYYCQHRGTFGGGTKVDIK
B3: anti-MOG MO4H-118 antibody (scFv, V domains shown)
VH: EVQLVQSGAEVKKPGASVKVSCKVSGYTLTELSMHWVRQAPGKGLEWMGGFDPEDGETIYAQKFQGRVTMTEDTSTDTAYMELSSLRSEDTAVYYCATIGPKVAAHTYYFDYWGQGTLVTVSS
VL: DIQLTQSPSSLSASVGDRVTITCRASQTIVTYLNWYQQKPGKAPNLLITDASSLQSGVPSRFSGTESGTDFTLTISSLQPEDFGSYYCQSYMNPITFGQGTRLEIN
B4: anti-MOG MO3I-34 antibody (scFv, V domains shown)
VH: EVQLVQSGAEVKKPGASVKVSCKASGYTFTSYGISWVRQAPGQGLEWMGWISAYNGNTNYAQKLQGRVTMTTDTSTSTAYMELRSLRSDDTAVYYCARNMGCSSTSCFVSWFDPWGQGTLVTVSS
VL: QSVLTQPPSVSAAPGQKVTISCSGSRSNIGSNYVSWYQQLPGTAPKLLIYDNTRRPSGIPDRFYGSKSGTSATLDITGLQTGDEADYHCATWDSSLSALLFGGGTKVTVL
B5: anti-MOG MO3I-33 antibody (scFv, V domains shown)
VH: DQVQLVQSGAEVKPGATVKISCKVSGYTFTDYYMHWVQQAPGKGLEWMGLVDPEDGETIYAEKFQGRVTITADTSTDTAYMELSSLRSEDTAVYYCATSYHGTSGFDYWGQGTLVTVSS
VL: QSVVTQPPSVSGAPGQRVTIACTGSNSDIGAGHDVHWYQQFPRTAPKLIIFGNTNRPSGVPDRFSGSKSGTSASLVITGLQADDEADYHCQSYDNNLSGPIFGGGTKLTVL
B6: anti-MOG MO3I-63 antibody (scFv, V domains shown)
VH: QVQLVQSGAEVKTPGASVKISCKASGYAFTSYAMHWVRAPGQGLEWMGWINAANANTKYSQRFQGRVTITRDTSASTAYMELNSLRSEDTAVYYCASSEDISRSNYYNYYMDVWGKGTTVTVSS
VL: DIVMTQSPSSLSASVGDRVTITCRASQTITTSLAWFQHRPGKAPKLLIYSASSLQSGVPSRFSGSGSGTDFTLTISSLQPEDFATYSCQQTYSAPPTFGGGTKVEIK
B7: anti-MOG MO3I-60 antibody (scFv, V domains shown)
VH: EVQLVESGGGLVKPGGSLGLSCAASGFTFTNAWGHWVRQAPGKGLEWVGRIKSKTDGGTTDYAAPVKDRFSISRDDSKNTLYLQMNSPTTEDTAVYYCATENGMDIVTTFDSWGQGTLVTVSS
VL: AIRMTQSPSSLSASVGDRVTITCRASQSIGSYLSWYRQKPGKAPKLLIYDSSTLQSGVASRFSGSGSGTDFTLTISALQPEDFATYYCHQSYRTPLSFGGGTKVEIK
B8: anti-MOG MO4H-106 antibody (scFv, V domains shown)
VH: QVQLVQSGAEVKKPGASVKVSCKASGYTFTTYNIHWMRQAPGQSLEWMGWISTGNGDTEYSQKLQGSVTFTRDTSASTVYMDLNSLTPGDTAVYSCARESLFVSSWYADYWGQGTLVTVSS
VL: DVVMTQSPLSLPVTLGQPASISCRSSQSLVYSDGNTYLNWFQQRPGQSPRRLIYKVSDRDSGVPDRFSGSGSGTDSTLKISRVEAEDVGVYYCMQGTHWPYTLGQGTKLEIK
B9: anti-MOG MO3I-69 antibody (scFv, V domains shown)
VH: DQVQLVQSGAEVKPGASVKVSCKASGYTFTYYYLHWVRQAPGQGLEWMGWINPNSGATIFAQKFQGRVTLTRDTSISTAYLDLSRLRSDDTAVYYCARASMAYQYHSDVDYWGLGTLVTVSS
VL: QSVLTQPPSVSGAPGQRVTISCTGSSSNIGAGYDVHWYQQLPGTAPKLLIYGNSNRPSGVPDRFSGSKSGTSASLAITGLQAEDEADYYCQSYDSSLVVFGGGTKLTVL
B10: anti-MOG MO3I-57 antibody (scFv, V domains shown)
VH: QVQLVQSGAEVKKPGASVKVSCKASGYTFSSYGISWVRQAPGQGLEWMGWISANTGNTDYAERLQGRVTMTTDTSTTTAYMELRSLRSDDTAVYYCARGAPNGYAVDYWGQGTLVTVSS
VL: QSVLTQPPSASGAPGQRVSISCSGSSSNIGTNHVYWYQQFTGMAPKLIIDTNNQRPPGVPARFSGSKSGTSASLAISGLRSEDESDYYCLTWDDGLYDWVFGGGTKLTVL

Key:
[1] = molecular target: T1, recombinant human MOG protein (human, UniProt Q16653 30-154, limits assumed); assay: phage-scFv ELISA on coated recombinant human MOG (0.5 µg/well), anti-M13 HRP, OD450 over BSA background
T1 construct: Bought recombinant protein; also called HMOG
T1 sequence (looked up): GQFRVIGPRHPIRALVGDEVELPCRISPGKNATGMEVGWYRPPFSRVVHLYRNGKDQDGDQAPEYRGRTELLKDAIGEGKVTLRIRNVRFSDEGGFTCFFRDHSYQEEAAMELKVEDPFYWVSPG
Description: (§1) The binding characteristics of the scFvs expressed on the surface of the phages isolated during the screening were determined using an ELISA assay using the recombinant MOG protein (R&D system). Along with the selected clones, phage-scFv-8-18C5 is expressed to serve as a positive control for ELISA. Briefly, phage-scFv were produced in the form of clones isolated on a 96-well plate in 800 μl of 2YT/ampicillin/glucose cultures infected with the helper phage M13K07 (as described previously). The phages produced overnight at 26° C. were then recovered in the supernatants after 30 minutes of centrifugation at 3000 g. These supernatants were directly diluted 1/2 in PBS/4% BSA/0.1% Tween 20 and tested on Maxisorp immunoplates previously coated with 0.5 μg of human or murine MOG or PBS (background control (bdf) in BSA)/well and blocked with 4% BSA in PBS. After incubation for 2 hours at 37° C., the wells were washed 3 times with PBS/0.1% Tween-20 and bound phages-scfv were detected with anti-M13 HRP antibody (GE Healthcare). The plate is read at 450 nm (OD) on a plate reader (TECAN). The results are expressed as a ratio: OD on target/OD bdf (OD on an uncoated plate saturated with BSA) and the ratios are compared with that obtained for the positive control.

[2] = molecular target: T2, recombinant murine MOG protein (murine, UniProt Q61885 29-156, limits assumed); assay: phage-scFv ELISA on coated recombinant murine MOG (0.5 µg/well), anti-M13 HRP, OD450 over BSA background
T2 construct: Bought recombinant protein; also called MMOG
T2 sequence (looked up): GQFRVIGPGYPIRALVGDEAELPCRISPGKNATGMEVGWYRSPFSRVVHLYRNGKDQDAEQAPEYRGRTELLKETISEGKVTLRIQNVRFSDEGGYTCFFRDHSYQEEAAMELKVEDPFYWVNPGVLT
Description: as §1

Binder	ratio OD on target/OD bdf [1] [ratio]	ratio OD on target/OD bdf [2] [ratio]
B1	2.86	2.19
B2	2.29	2.29
B3	2.04	4.01
B4	2.14	2.45
B5	2.53	2.52
B6	2.66	5.55
B7	2.09	2.75
B8	2.55	2.78
B9	2.26	2.76
B10	2.44	2.77
